Biological target: Human F1Fo-ATPase purified from HepG2 cells (human)
Assay: cell-based or functional assay

| F1-ATPase activity (NADH-coupled assay, purified F1Fo-ATPase, 1 µM peptide), inhibition as compared to control | Binder |
| --- | --- |
| 75% | RGAGSIREAGGAFGKREQAEEERYFRAQSREQLAALKK [IF1-10-47] |
| 88% | RGAGSIREAGGAFGKREQAEEERYFRAQSREQLAALKKHHEEEIVHH [IF1-10-56] |
| 94% | IF1-1-60 (peptide) peptide: GSDQSENVDRGAGSIREAGGAFGKREQAEEERYFRAQSREQLAALKKHHEEEIVHHKKEI |
